Reference: PMC4251702

How the values were obtained:
[1] = biological target: rabbit muscle G-actin, biotinylated (rabbit) (UniProt P68135)
[2] = biological target: P. falciparum F-actin, biotinylated (P. falciparum 3D7 (endogenous in merozoites)) (UniProt Q8I4X0); assay: BLI
[3] = biological target: P. falciparum G-actin, biotinylated (P. falciparum 3D7 (endogenous in merozoites)) (UniProt Q8I4X0); assay: BLI

PfMTRAP cytoplasmic tail domain peptide (residues 452-498)
initial rate of polymerization of 2.5 μM pyrene-labelled rabbit actin with 50 μM MTRAP CTD peptide, without aldolase (control without addition 35, bovine serum albumin 34) (fluorescence units min^-1) [1]: 66

Plasmodium falciparum aldolase (from UniProt P14223 1-369) (enzyme)
Kd [2]: 370 nM
Kd [3]: 470 nM

RH1 cytoplasmic tail domain peptide (residues 2942-2971)
initial rate of polymerization of 2.5 μM pyrene-labelled rabbit actin with 50 μM RH1 CTD peptide, without aldolase (control without addition 35, bovine serum albumin 34) (fluorescence units min^-1) [1]: 69
